This passage reports Fold Difference (Control IC50), against palivizumab and Fold Difference (Curve IC50), against palivizumab results from patent US20100278929A1.

First the molecules themselves.
B1: A17d4(1) monoclonal antibody (antibody, V domains shown)
VH: QVTLRESGPALVKPTQTLTLTCTFSGFSLSTAGMSVGWIRQPPGKALEWLADIWWDGKKSYNPSLKDRLTISKDTSKNQVVLKVTNMDPADTATYYCARDMIFNFYFDVWGQGTTVTVSS
VL: DIQMTQSPSTLSASVGDRVTITCLPSSRVGYMHWYQQKPGKAPKLLIYDTMYQSSGVPSRFSGSGSGTEFTLTISSLQPDDFATYYCFQGSGYPFTFGGGTKVEIK
B2: P12f4 Fab fragment (Fab, V domains shown)
VH: B1 VH with A32P, S60H
VL: B1 VL with L24S, P25L, M51R, Y52G, Q53L, S54P
B3: P12f2 Fab fragment (Fab, V domains shown)
VH: B1 VH with A32P, G57D, S60H
VL: B1 VL with L24S, P25L, M51F, Q53L
B4: P12f2 monoclonal antibody (antibody, V domains shown)
VH: B1 VH with A32P, G57D, S60H
VL: B1 VL with L24S, P25L, M51F, Q53L
B5: A13c4 monoclonal antibody (antibody, V domains shown)
VH: B1 VH
VL: B1 VL with L24S, P25L
B6: A4B4 monoclonal antibody (antibody, V domains shown)
VH: B1 VH with G57D, S60H
VL: B1 VL with L24S, P25A, M51F, Y52F, Q53L, S54D
B7: A8c7 Fab fragment (Fab, V domains shown)
VH: B1 VH with G57D, F105W
VL: B1 VL with L24S, M51R
B8: A4B4 Fab fragment (Fab, V domains shown)
VH: B1 VH with G57D, S60H
VL: B1 VL with L24S, P25A, M51F, Y52F, Q53L, S54D
B9: P11d4 monoclonal antibody (antibody, V domains shown)
VH: B1 VH with A32P, S60H, F105W
VL: B1 VL with L24S, Y52R, Q53L, S54A
B10: A12a6 Fab fragment (Fab, V domains shown)
VH: B1 VH with S60D
VL: B1 VL with L24S, P25A, M51F, Y52K, Q53L
B11: A17d4(1) Fab fragment (Fab, V domains shown)
VH: B1 VH
VL: B1 VL
B12: A13c4 Fab fragment (Fab, V domains shown)
VH: B1 VH
VL: B1 VL with L24S, P25L
B13: A8c7 monoclonal antibody (antibody, V domains shown)
VH: B1 VH with G57D, F105W
VL: B1 VL with L24S, M51R
B14: A1e9 Fab fragment (Fab, V domains shown)
VH: B1 VH with S60H, F105W
VL: B1 VL with L24S, P25L, M51F, Y52K, Q53L
B15: A12a6 monoclonal antibody (antibody, V domains shown)
VH: B1 VH with S60D
VL: B1 VL with L24S, P25A, M51F, Y52K, Q53L
B16: A1e9 monoclonal antibody (antibody, V domains shown)
VH: B1 VH with S60H, F105W
VL: B1 VL with L24S, P25L, M51F, Y52K, Q53L
B17: A13a11 Fab fragment (Fab, V domains shown)
VH: B1 VH with G57D, S60H, F105W
VL: B1 VL with L24S, M51Y, Y52R, Q53H
B18: P12f4 monoclonal antibody (antibody, V domains shown)
VH: B1 VH with A32P, S60H
VL: B1 VL with L24S, P25L, M51R, Y52G, Q53L, S54P
B19: A1h5 Fab fragment (Fab, V domains shown)
VH: B1 VH with S60H, F105W
VL: B1 VL with L24S, P25L, R28S, M51F, Y52F, Q53H, S54R

Numbering of substitutions follows the chain as printed.

Sequence of RSV (Long strain) F protein on infectious virus (respiratory syncytial virus (Long strain)) (P12568 26-574): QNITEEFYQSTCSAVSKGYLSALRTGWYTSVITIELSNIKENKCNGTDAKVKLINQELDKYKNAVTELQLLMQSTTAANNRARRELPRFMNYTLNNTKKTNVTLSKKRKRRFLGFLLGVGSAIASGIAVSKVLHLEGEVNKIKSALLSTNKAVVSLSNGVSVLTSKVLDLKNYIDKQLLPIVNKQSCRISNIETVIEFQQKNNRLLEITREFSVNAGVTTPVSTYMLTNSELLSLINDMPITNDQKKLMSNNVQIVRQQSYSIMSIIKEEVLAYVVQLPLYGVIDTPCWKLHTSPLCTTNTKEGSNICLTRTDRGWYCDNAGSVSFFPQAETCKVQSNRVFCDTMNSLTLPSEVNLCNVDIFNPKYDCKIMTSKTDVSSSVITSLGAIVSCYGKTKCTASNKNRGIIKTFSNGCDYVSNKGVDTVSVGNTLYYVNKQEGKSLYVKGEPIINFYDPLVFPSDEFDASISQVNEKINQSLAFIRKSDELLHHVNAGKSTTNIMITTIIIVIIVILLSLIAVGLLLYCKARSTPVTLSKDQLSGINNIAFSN

The assay concerns the target RSV (Long strain) F protein on infectious virus (respiratory syncytial virus (Long strain)) (UniProt P12568). As to the kind of experiment: cell-based or functional assay.
Regarding B1, the Fold Difference (Control IC50), against palivizumab came to 15 fold and the Fold Difference (Curve IC50), against palivizumab stood at 13 fold.
B2 yielded a Fold Difference (Control IC50), against palivizumab of 15 fold and a Fold Difference (Curve IC50), against palivizumab of 10 fold.
The like results for B3 were, in that order, 16 fold and 11 fold.
The like results for B4 were, in that order, 24 fold and 20 fold.
The like results for B5 were, in that order, 14 fold and 12 fold.
B6 gave a Fold Difference (Control IC50), against palivizumab of 35 fold and a Fold Difference (Curve IC50), against palivizumab of 27 fold.
On the same counts, the results for B7 are 34 fold and 3 fold.
Molecule B8 registered a Fold Difference (Control IC50), against palivizumab of 13 fold and a Fold Difference (Curve IC50), against palivizumab of 11 fold.
In turn, B9 came in with a Fold Difference (Control IC50), against palivizumab of 19 fold and a Fold Difference (Curve IC50), against palivizumab of 21 fold.
On the same counts, the results for B10 are 17 fold and 16 fold.
The like results for B11 were, in that order, 31 fold and 25 fold.
The like results for B12 were, in that order, 21 fold and 17 fold.
B13 had a Fold Difference (Control IC50), against palivizumab of 14 fold and a Fold Difference (Curve IC50), against palivizumab of 13 fold.
The like results for B14 were, in that order, 4 fold and 3 fold.
The like results for B15 were, in that order, 15 fold and 13 fold.
For B16, the Fold Difference (Control IC50), against palivizumab came to 8 fold and the Fold Difference (Curve IC50), against palivizumab was determined as 7 fold.
B17 had a Fold Difference (Control IC50), against palivizumab of 5 fold and a Fold Difference (Curve IC50), against palivizumab of 4 fold.
Molecule B18 came in with a Fold Difference (Control IC50), against palivizumab of 23 fold and a Fold Difference (Curve IC50), against palivizumab of 19 fold.
Molecule B19 came in with a Fold Difference (Control IC50), against palivizumab of 3 fold and a Fold Difference (Curve IC50), against palivizumab of 2 fold.
